Reference: patent US6040149A, “Assay for identifying agents which act on the ceramide-activated protein kinase, kinase suppressor of ras, and methods of using said agents” (priority 1997, dated 2000)

T1: KSR (Mus musculus, UniProt Q61097)
T1 sequence (Q61097 1-873): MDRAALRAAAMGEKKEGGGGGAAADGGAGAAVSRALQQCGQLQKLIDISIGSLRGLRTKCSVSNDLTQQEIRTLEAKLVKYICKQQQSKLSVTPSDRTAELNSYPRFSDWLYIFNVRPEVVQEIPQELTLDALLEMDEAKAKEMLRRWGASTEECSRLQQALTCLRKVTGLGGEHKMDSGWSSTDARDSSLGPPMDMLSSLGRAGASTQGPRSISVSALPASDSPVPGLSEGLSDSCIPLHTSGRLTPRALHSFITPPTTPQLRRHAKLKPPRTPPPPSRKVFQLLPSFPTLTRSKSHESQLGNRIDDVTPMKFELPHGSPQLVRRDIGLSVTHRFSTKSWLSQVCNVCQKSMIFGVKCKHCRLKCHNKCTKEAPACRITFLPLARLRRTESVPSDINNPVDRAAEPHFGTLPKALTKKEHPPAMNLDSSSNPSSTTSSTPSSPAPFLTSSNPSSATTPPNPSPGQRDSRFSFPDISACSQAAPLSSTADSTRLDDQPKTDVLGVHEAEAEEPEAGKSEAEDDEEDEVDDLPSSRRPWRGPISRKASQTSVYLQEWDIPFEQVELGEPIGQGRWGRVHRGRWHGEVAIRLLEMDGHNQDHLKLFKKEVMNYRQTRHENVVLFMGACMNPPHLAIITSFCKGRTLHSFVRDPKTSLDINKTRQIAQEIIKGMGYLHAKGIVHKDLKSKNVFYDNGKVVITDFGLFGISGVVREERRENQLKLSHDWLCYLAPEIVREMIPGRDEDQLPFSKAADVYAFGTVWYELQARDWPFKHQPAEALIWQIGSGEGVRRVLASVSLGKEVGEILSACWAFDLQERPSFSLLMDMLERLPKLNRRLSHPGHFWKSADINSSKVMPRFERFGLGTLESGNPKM

B1: KSR: mouse kinase suppressor of ras, Flag-tagged (protein, UniProt Q61097 1-873, looked up)
Kinase suppressor of Ras 1: T1 sequence (Q61097 1-873)
modifications: Flag tag
notes: mouse kinase suppressor of ras, Flag-tagged
B2: EGF: EGF (protein, UniProt P01133 23-1207, looked up)
Pro-epidermal growth factor: PQHWSCPEGTLAGNGNSTCVGPAPFLIFSHGNSIFRIDTEGTNYEQLVVDAGVSVIMDFHYNEKRIYWVDLERQLLQRVFLNGSRQERVCNIEKNVSGMAINWINEEVIWSNQQEGIITVTDMKGNNSHILLSALKYPANVAVDPVERFIFWSSEVAGSLYRADLDGVGVKALLETSEKITAVSLDVLDKRLFWIQYNREGSNSLICSCDYDGGSVHISKHPTQHNLFAMSLFGDRIFYSTWKMKTIWIANKHTGKDMVRINLHSSFVPLGELKVVHPLAQPKAEDDTWEPEQKLCKLRKGNCSSTVCGQDLQSHLCMCAEGYALSRDRKYCEDVNECAFWNHGCTLGCKNTPGSYYCTCPVGFVLLPDGKRCHQLVSCPRNVSECSHDCVLTSEGPLCFCPEGSVLERDGKTCSGCSSPDNGGCSQLCVPLSPVSWECDCFPGYDLQLDEKSCAASGPQPFLLFANSQDIRHMHFDGTDYGTLLSQQMGMVYALDHDPVENKIYFAHTALKWIERANMDGSQRERLIEEGVDVPEGLAVDWIGRRFYWTDRGKSLIGRSDLNGKRSKIITKENISQPRGIAVHPMAKRLFWTDTGINPRIESSSLQGLGRLVIASSDLIWPSGITIDFLTDKLYWCDAKQSVIEMANLDGSKRRRLTQNDVGHPFAVAVFEDYVWFSDWAMPSVMRVNKRTGKDRVRLQGSMLKPSSLVVVHPLAKPGADPCLYQNGGCEHICKKRLGTAWCSCREGFMKASDGKTCLALDGHQLLAGGEVDLKNQVTPLDILSKTRVSEDNITESQHMLVAEIMVSDQDDCAPVGCSMYARCISEGEDATCQCLKGFAGDGKLCSDIDECEMGVPVCPPASSKCINTEGGYVCRCSEGYQGDGIHCLDIDECQLGEHSCGENASCTNTEGGYTCMCAGRLSEPGLICPDSTPPPHLREDDHHYSVRNSDSECPLSHDGYCLHDGVCMYIEALDKYACNCVVGYIGERCQYRDLKWWELRHAGHGQQQKVIVVAVCVVVLVMLLLLSLWGAHYYRTQKLLSKNPKNPYEESSRDVRSRRPADTEDGMSSCPQPWFVVIKEHQDLKNGGQPVAGEDGQAADGSMQPTSWRQEPQLCGMGTEQGCWIPVSSDKGSCPQVMERSFHMPSYGTQTLEGGVEKPHSLLSANPLWQQRALDPPHQMELTQ
modifications: Pro-epidermal growth factor

Columns and labels:
Raf-1 [1] = assay: Activation of Raf-1 by KSR in vitro (MEK1 phosphorylation)
Raf-1 [2] = assay: Raf-1 activity after co-expression with KSR in COS-7 cells; assay type: cell-based, human (Raf-1 expressed in COS-7 cells)
Description: Some studies used untagged KSR (n=4) and yielded identical results. At 60 hours post-transfection, cells were lysed with RIPA buffer (NP-40 buffer containing 0.1% SDS and 0.1% deoxy cholate). […] […]. The samples were boiled for 5 min, resolved with SDS-PAGE (7.5%) and autoradiographed.
[…]. After 30 min, the reaction was stopped by addition of Laemmli sample buffer and phosphorylated MBP were resolved by 15% SDS-PAGE, prior to autoradiography.
; a kind gift of Dr. Natalie Ahn) or 1.25 μg recombinant human MEK1 (Santa Cruz), 0.625 μg recombinant human ERK1 (UBI) and myelin basic protein (MBP). After 20-30 min, the reaction was stopped by addition of SDS sample buffer. […]

KSR = biological target: T1, KSR; assay: KSR autophosphorylation after treatment of COS-7 cells expressing KSR; assay type: cell-based, mouse (KSR expressed in COS-7 cells); conditions: COS-7 cells, preliminary
Description: FIG. 23A--COS-7 cells were transfected as in FIG. 22A and placed in serum-free medium. After 4 hours, cells were stimulated for 10 min with the ceramide analog, C2-ceramide (Biomol), at the concentrations indicated. Cells were lysed with NP-40 lysis buffer, and Flag-tagged KSR (0.8 mg protein for each point) was immunoprecipitated and assayed for autophosphorylation activity as described in Experimental Procedures. The autoradiogram was exposed for 1 hour. KSR is expressed at similar levels in each sample as monitored by Western blot (data not shown). Data represent one of three similar experiments.
COS-7 cells expressing Flag-tagged KSR were stimulated with 10 nM TNFα for the times indicated and lysed with NP-40 buffer as in FIG. 2A. […] The autoradiogram was exposed for 1 hour. Data represent one of three similar experiments.
KSR was immunoprecipitated as above from 0.8 mg NP-40 lysate protein with 40 μl agarose-conjugated anti-Flag antibody at 4° C. for 4 hrs or overnight. […] The reaction was stopped by addition of Laemmli sample buffer. Samples were resolved by 7.5% sodium dodecyl sulfate-polyacrylamide gel electrophoresis (SDS-PAGE) and autoradiographed.

Row | Molecule | direct effect on MEK or ERK (Raf-1 [1]) | Raf-1 activation in COS-7 cells co-expressing KSR (Raf-1 [2]) | activation of KSR/CAP kinase (KSR)
1 | B1 | no direct effect | marked increase in Raf-dependent MEK1 phosphorylation | 
2 | B2 |  |  | does not activate KSR/CAP kinase
